Measurements from paper PMC2966277 (Cell, 2010).
Each block holds one binder with its values, some of them ahead of it.

Tests used:
[1] = target: T1, GFP-PRC1-FL (GFP-tagged full-length PRC1, aa 1-620) (human), O43663; test: single-molecule fluorescence intensity analysis; settings: remark: other sources report otherwise
T1 chain: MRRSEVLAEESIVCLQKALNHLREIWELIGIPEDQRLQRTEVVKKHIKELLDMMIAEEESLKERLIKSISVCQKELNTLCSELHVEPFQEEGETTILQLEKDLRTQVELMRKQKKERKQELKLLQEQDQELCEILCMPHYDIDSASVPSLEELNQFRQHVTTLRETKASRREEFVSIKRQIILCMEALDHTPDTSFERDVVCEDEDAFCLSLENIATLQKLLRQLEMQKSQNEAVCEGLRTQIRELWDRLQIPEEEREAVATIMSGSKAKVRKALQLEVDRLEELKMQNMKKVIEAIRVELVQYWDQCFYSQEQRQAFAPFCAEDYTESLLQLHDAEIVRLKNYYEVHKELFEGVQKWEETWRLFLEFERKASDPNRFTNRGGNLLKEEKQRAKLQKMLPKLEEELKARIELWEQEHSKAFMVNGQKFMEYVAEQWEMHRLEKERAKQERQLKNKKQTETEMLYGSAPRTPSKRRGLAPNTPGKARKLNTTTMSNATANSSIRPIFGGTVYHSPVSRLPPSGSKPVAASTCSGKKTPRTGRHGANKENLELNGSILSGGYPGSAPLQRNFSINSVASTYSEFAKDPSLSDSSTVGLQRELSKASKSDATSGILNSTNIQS

[2] = target: T2, PRC1-FL (untagged full-length PRC1) (human), O43663; settings: remark: other sources report otherwise
T2 chain: T1 chain

[3] = target: the molecule itself; test: SEC-MALS
[4] = target: microtubules (UniProt Q6B856 1-445); test: co-sedimentation

B1: GFP-PRC1-FL (GFP-tagged full-length PRC1, aa 1-620), O43663 1-620 (natural protein)
chain: T1 chain
- stoichiometry N [1]: 2

B3: PRC1-NSΔC (aa 1-486) (domain or fragment, human, UniProt O43663 1-486, looked up)
chain: MRRSEVLAEESIVCLQKALNHLREIWELIGIPEDQRLQRTEVVKKHIKELLDMMIAEEESLKERLIKSISVCQKELNTLCSELHVEPFQEEGETTILQLEKDLRTQVELMRKQKKERKQELKLLQEQDQELCEILCMPHYDIDSASVPSLEELNQFRQHVTTLRETKASRREEFVSIKRQIILCMEALDHTPDTSFERDVVCEDEDAFCLSLENIATLQKLLRQLEMQKSQNEAVCEGLRTQIRELWDRLQIPEEEREAVATIMSGSKAKVRKALQLEVDRLEELKMQNMKKVIEAIRVELVQYWDQCFYSQEQRQAFAPFCAEDYTESLLQLHDAEIVRLKNYYEVHKELFEGVQKWEETWRLFLEFERKASDPNRFTNRGGNLLKEEKQRAKLQKMLPKLEEELKARIELWEQEHSKAFMVNGQKFMEYVAEQWEMHRLEKERAKQERQLKNKKQTETEMLYGSAPRTPSKRRGLAPNTPGKAR
- stoichiometry N [3]: 2

Other lines, results leading:

- stoichiometry N [2]: 2
B2: PRC1-FL (untagged full-length PRC1), O43663 1-620 (natural protein)
chain: T1 chain

- Kd [4]: 600 ± 300 nM
B4: PRC1-SC (aa 341-620) (domain or fragment, human, UniProt O43663 341-620, looked up)
chain: LKNYYEVHKELFEGVQKWEETWRLFLEFERKASDPNRFTNRGGNLLKEEKQRAKLQKMLPKLEEELKARIELWEQEHSKAFMVNGQKFMEYVAEQWEMHRLEKERAKQERQLKNKKQTETEMLYGSAPRTPSKRRGLAPNTPGKARKLNTTTMSNATANSSIRPIFGGTVYHSPVSRLPPSGSKPVAASTCSGKKTPRTGRHGANKENLELNGSILSGGYPGSAPLQRNFSINSVASTYSEFAKDPSLSDSSTVGLQRELSKASKSDATSGILNSTNIQS

- Kd [4]: 3300 ± 1800 nM
B5: PRC1-S (aa 341-466) (domain or fragment, human, UniProt O43663 341-466, looked up)
chain: LKNYYEVHKELFEGVQKWEETWRLFLEFERKASDPNRFTNRGGNLLKEEKQRAKLQKMLPKLEEELKARIELWEQEHSKAFMVNGQKFMEYVAEQWEMHRLEKERAKQERQLKNKKQTETEMLYGS
